Consider 2 molecules from patent US20200223910A1 (STERLING IP, published 2020).

For assay [1], the target named is T1, mouse TNC rCd4-His-FBG (rat; mouse, UniProt P05540 209-391; Q80YX1 1883-2110, limits assumed).
T1 construct: domain: domains 3 and 4;domain: FBG; Biotinylated in the capture ELISA; also called Mu TNC; mTNC; not shown: 6His tag
T1 sequence (chain (part 1 of 2), looked up): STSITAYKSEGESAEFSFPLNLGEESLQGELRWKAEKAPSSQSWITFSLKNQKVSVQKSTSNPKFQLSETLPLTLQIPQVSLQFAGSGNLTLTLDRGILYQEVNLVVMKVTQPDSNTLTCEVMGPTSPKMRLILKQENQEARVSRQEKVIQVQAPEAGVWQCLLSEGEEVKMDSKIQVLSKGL
T1 sequence (chain (part 2 of 2), looked up): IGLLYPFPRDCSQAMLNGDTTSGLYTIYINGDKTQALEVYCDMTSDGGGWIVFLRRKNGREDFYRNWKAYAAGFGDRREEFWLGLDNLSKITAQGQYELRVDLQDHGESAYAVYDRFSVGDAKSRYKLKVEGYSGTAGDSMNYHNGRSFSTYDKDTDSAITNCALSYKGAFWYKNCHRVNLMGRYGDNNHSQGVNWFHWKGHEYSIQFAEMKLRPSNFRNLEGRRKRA
Nature of the assay: SPR BIAcore T200, 37 C, IgG4 captured on anti-human Fc, rCd4-His-FBG injected, 1:1 fit. On the procedure:
(§1) For the kinetic assay ˜1,500-1,900 response units (RU) of anti-human Fc IgG (GE, BR-1008-39) was immobilised in all flow-cells (FC1-4) on a Series S CM5 sensor chip (BR-1005-30) using EDC/NHS cross-linking chemistry according to the amine coupling kit protocol (GE, BR-1000-50). […] Antibody capture levels ranged typically from 70 RU (for TNR interactions) to 90 RU (for TNC interactions).
(§2) A 1:1 dilution series of antigen in HBS-P+ (30 nM of human and mouse TNC rCd4-His-FBG and 480 nM of human TNR rCd4-His-FBG) was injected with a flow-path via the reference flow cell (FC1 and FC3, respectively) and the antibody capture flow cell (FC2 and FC4, respectively) with a flow rate of 30 μl/min. The association and dissociation phases were measured over a 3.5 and 30 min time period, respectively, for human and mouse TNC rCd4-His-FBG, and 2 and 8 min time period for human TNR rCd4-His-FBG. For interaction analysis with human and mouse TNC rCD4-His-FBG regeneration of free capture antibody surfaces after each antigen injection was done by injection of 3 M MgCl 2 for 60 s and for each sample injection a fresh NSCT antibody was captured. Carry over of antigen was prohibited by an extra needle wash step with 50% DMSO before every injection. Runs were performed at the more physiologically relevant temperature of 37° C.
(§3) Kinetic parameters were determined by reference cell subtraction and fitting the sensorgram experimental data to a 1:1 interaction model using the BIAcore T200 Evaluation software version 2.0.
On the technique in general: Surface plasmon resonance follows binding to a sensor surface in real time, without labels.

Assay [2] concerns the target T2, human TNC rCd4-His-FBG (rat; human, UniProt P05540 209-391; P24821 1974-2201, limits assumed).
T2 construct: domain: domains 3 and 4;domain: FBG; C-terminal FBG fusion made in HEK293F cells; biotinylated in the ELISA and HTRF assays; also called Hu TNC; hTNC; not shown: 6His tag
T2 sequence (chain (part 1 of 2), looked up): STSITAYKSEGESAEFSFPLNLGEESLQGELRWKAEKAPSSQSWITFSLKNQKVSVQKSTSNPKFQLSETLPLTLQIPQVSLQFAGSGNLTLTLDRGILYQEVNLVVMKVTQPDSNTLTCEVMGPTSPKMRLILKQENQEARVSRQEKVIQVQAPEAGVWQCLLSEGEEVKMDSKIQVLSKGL
T2 sequence (chain (part 2 of 2), looked up): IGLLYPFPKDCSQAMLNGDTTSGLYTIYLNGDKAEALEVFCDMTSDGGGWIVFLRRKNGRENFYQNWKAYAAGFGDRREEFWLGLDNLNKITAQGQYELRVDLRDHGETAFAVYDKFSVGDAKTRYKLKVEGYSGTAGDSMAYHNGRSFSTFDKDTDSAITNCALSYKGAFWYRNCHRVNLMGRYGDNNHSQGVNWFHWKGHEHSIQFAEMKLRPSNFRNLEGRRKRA
The assay is described as above. As for the experimental part: as §1, §2, §3

Assay [3] concerns the target T3, human TNR rCd4-His-FBG (rat; human, UniProt P05540 209-391; Q92752 1128-1358, limits assumed).
T3 construct: domain: domains 3 and 4;domain: FBG; also called Hu TNR; hTNR; not shown: 6His tag
T3 sequence (chain (part 1 of 2), looked up): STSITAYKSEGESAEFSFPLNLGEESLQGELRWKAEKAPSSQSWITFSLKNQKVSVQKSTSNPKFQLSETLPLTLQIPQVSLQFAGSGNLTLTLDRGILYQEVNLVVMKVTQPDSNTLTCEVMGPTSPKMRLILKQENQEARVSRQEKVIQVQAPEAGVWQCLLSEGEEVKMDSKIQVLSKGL
T3 sequence (chain (part 2 of 2), looked up): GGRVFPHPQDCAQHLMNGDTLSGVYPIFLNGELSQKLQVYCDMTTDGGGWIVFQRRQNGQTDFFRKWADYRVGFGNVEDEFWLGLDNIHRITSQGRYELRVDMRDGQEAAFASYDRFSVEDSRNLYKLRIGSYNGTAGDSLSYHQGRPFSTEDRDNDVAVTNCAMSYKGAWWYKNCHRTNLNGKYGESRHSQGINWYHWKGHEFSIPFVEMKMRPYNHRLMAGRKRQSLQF
The description is as above. On the procedure:
as §1, §2, §3

The target in assay [4] is T1, mouse TNC rCd4-His-FBG. Kind of assay: SPR BIAcore T200, 37 C, IgG4 captured on anti-human Fc, rCd4-His-FBG injected, 1:1 fit; relative to theoretical Rmax. On the procedure:
as §1, §2, §3

For assay [5], the target named is T2, human TNC rCd4-His-FBG. The assay is described as above. As for the experimental part:
as §1, §2, §3

Assay [6] addresses T3, human TNR rCd4-His-FBG. Described as above. As for the experimental part: as §1, §2, §3
The target in assay [7] is T3, human TNR rCd4-His-FBG. Kind of assay: SPR, 37 C, purified IgG4 captured on anti-human Fc. As for the experimental part:
(§4) Detailed kinetic parameters were evaluated for the 9 prioritised IgG4 antibodies. Binding characteristics were determined for interaction with human, […] TNC rCD4-His-FBG, and human TNR rCD4-His-FBG. Kinetic assays followed essentially the same protocols as for the off-rate determinations described above, with some modifications as follows. To improve the accuracy of kinetic parameter determination, anti-human Fc IgG was immobilised at lower levels (2229 RU), resulting in a corresponding reduction in the amount of anti-FBG IgG4 captured. Purified anti-FBG IgG4 was diluted to a concentration of 3.5 nM in PBS, pH 7.4, 0.05% Tween-20 and injected into FC2 at a flow rate of 10 μl/min, 60 s contact time. […] Antigens were prepared by doubling dilution in PBS, pH 7.4, 0.05% Tween-20 (highest concentration 100 nM except mouse rCD4-His-FBG which was 7 nM). Assays were performed at 37° C. (30 μl/min, 120 s contact time; mouse rCD4-His-FBGFBG 10 μl/min, 60 s contact time), with both the flow cell and injection chamber equilibrated to this temperature. As before, kinetic parameters were determined by reference cell subtraction and fitting the sensogram experimental data assuming a 1:1 interaction using BIAevaluation software (GE, BR-1005-97).

Assay [8] has as its target T2, human TNC rCd4-His-FBG. Kind of assay: SPR, 37 C, purified IgG4 captured on anti-human Fc. As for the experimental part: as §4

B1: IgG4 165_13_C3 (antibody, V domains shown)
VH: QVQLVESGGGLVQPGRSLRLSCAASGFTFDDYAMHWVRQAPGKGLEWVSGISGSGGSTYYADSVKGRFTISRDNAKNSLYLQMNSLRAEDTALYYCAKSYQSDEDAFDIWGQGTMVTVSS
VL: DIQMTQSPASLPTPVGDRVTITCRASQYIQGFLNWYQQKPGKAPKLLIYDASNLETGVPSRFSGSGSGTDFTLTISSLQPEDFATYYCQQSYSTPQTFGQGTKVDIKR
notes: Human IgG4 with hinge modification S241P; also called MAb C3; C3 Mab
Usually Kd stands for the free concentration of one partner at which half of the binding sites on the other are occupied at equilibrium, for simple one-to-one binding. A high value points to weaker binding. Broadly, the koff is the first-order rate constant of dissociation. Read a low koff as slow dissociation. One may read the kon as the second-order rate constant of association. As to B1, the dissociation constant Kd in assay [1] is 0.433 nM; in assay [2] it was 1.24 nM; in assay [3], 52.7 nM. The results for the koff in assay [1], in assay [2] and in assay [3] were 0.004 s⁻¹, 0.0042 s⁻¹ and 0.059 s⁻¹, respectively. In addition, the kon came out at 9.27e+06 M⁻¹ s⁻¹ in assay [1], 3.4e+06 M⁻¹ s⁻¹ in assay [2] and 1.13e+06 M⁻¹ s⁻¹ in assay [3]. Further, the “SA, surface activity” value is 303% in assay [4], 298% in assay [5] and 184% in assay [6]. Also, the “fold lower affinity than to human TNC FBG” value in assay [7] was over 70 fold.

B2: 160_01_A4 IgG4 (antibody, V domains shown)
VH: EVRLVQSGAEVKKPGASVKVSCKVSGYTLTELSMHWVRQAPGKGLEWMGGFDPEDGETIYAQKFQGRVTMTEDTSTDTAYMELSSLRSEDTAVYYCATAQKETLGNAIWGQGTLVTVSS
VL: DIQMTQSPASLPTSVGDRVTITCRASQYIQGFLNWYQQKPGKAPRLLIYAASTLQDGVPSRFSGSGYGTDFTLTISSLQPEDFATYYCQQSYSTPWTFGQGTKVEIKR
Regarding B2, in assay [8], the Kd was under 1 nM. In addition, the “fold lower affinity than to human TNC FBG” value in assay [7] was over 70 fold.
